# Article PMC4951027
# Experiments:
# [1] = molecular target: ecto-domain of integrin α5β1-Fc fusion protein; assay: SPR
# [2] = molecular target: Fn N-terminal domain fragment (Fn-NTD) (human); assay: SPR; settings: domain or fragment
# Sequence of Fn N-terminal domain fragment (Fn-NTD) (human) (P02751 32-290): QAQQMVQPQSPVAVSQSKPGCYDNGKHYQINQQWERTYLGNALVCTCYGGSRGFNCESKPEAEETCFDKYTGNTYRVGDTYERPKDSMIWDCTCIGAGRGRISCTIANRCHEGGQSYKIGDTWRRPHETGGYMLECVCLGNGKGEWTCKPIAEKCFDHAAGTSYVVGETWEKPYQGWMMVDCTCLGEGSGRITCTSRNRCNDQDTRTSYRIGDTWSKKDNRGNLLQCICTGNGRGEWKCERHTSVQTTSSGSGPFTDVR
Substance,Kd [1],"ka1 (first step, bivalent analyte model) [1]","ka2 (second step, bivalent analyte model) [1]","kd1 (first step, bivalent analyte model) [1]","kd2 (second step, bivalent analyte model) [1]",Kd [2]
Fn + BBK32 (BBK32-bound Fn) (from UniProt O50835 21-205) (complex),170 nM,75000 M⁻¹ s⁻¹,8e-06 RU^-1s^-1,0.012 s⁻¹,0.001 s⁻¹,–
GST-FnBPA-3,–,–,–,–,–,10 µM
